According to US20120207760A1:
Several values for one entry are separate records, joined by “and”; a condition that tells them apart may be missing. Equal values may be shown once.

Assays:
[1] = biological target: hemagglutinin (HA) on live influenza A virus A/California/4/09 H1N1 (Influenza A virus A/California/04/2009 (H1N1)); experiment: cell-based or functional assay
[2] = biological target: hemagglutinin (HA) on live influenza A virus A/Solomon Islands/3/06 H1N1 (Influenza A virus A/Solomon Islands/3/2006 (H1N1)); experiment: cell-based or functional assay
[3] = biological target: hemagglutinin (HA) on live influenza A virus A/Wisconsin/67/05 H3N2 (Influenza A virus A/Wisconsin/67/2005 (H3N2)); experiment: cell-based or functional assay
[4] = biological target: recombinant homotrimeric HA, A/California/4/09 H1N1 (Influenza A virus A/California/4/09 (H1N1)); experiment: trimeric HA microarray, transfection set 1
[5] = biological target: recombinant homotrimeric HA, A/Japan/305/57 H2N2 (Influenza A virus A/Japan/305/57 (H2N2)); experiment: trimeric HA microarray, transfection set 1
[6] = biological target: recombinant homotrimeric HA, A/Vietnam/1203/04 H5N1 (Influenza A virus A/Vietnam/1203/04 (H5N1)); experiment: trimeric HA microarray, transfection set 1
[7] = biological target: recombinant homotrimeric HA, A/Anhui/1/05 H5N1 (Influenza A virus A/Anhui/1/05 (H5N1)); experiment: trimeric HA microarray, transfection set 3
[8] = biological target: recombinant homotrimeric HA, A/California/4/09 H1N1 (Influenza A virus A/California/4/09 (H1N1)); experiment: trimeric HA microarray, transfection set 3
[9] = biological target: recombinant homotrimeric HA, A/Egypt/3300-NAMRU3/08 H5N1 (Influenza A virus A/Egypt/3300-NAMRU3/08 (H5N1)); experiment: trimeric HA microarray, transfection set 3
[10] = biological target: recombinant homotrimeric HA, A/Hong Kong/1073/99 H9N2 (Influenza A virus A/Hong Kong/1073/99 (H9N2)); experiment: trimeric HA microarray, transfection set 3
[11] = biological target: recombinant homotrimeric HA, A/Hong Kong/2108/03 H9N2 (Influenza A virus A/Hong Kong/2108/03 (H9N2)); experiment: trimeric HA microarray, transfection set 3
[12] = biological target: recombinant homotrimeric HA, A/Indonesia/5/05 H5N1 (Influenza A virus A/Indonesia/5/05 (H5N1)); experiment: trimeric HA microarray, transfection set 3
[13] = biological target: recombinant homotrimeric HA, A/Japan/305/57 H2N2 (Influenza A virus A/Japan/305/57 (H2N2)); experiment: trimeric HA microarray, transfection set 3
[14] = biological target: recombinant homotrimeric HA, A/Netherlands/219/03 H7N7 (Influenza A virus A/Netherlands/219/03 (H7N7)); experiment: trimeric HA microarray, transfection set 3
[15] = biological target: recombinant homotrimeric HA, A/Solomon Islands/3/06 H1N1 (Influenza A virus A/Solomon Islands/3/06 (H1N1)); experiment: trimeric HA microarray, transfection set 3
[16] = biological target: recombinant homotrimeric HA, A/South Carolina/1/18 H1N1 (Influenza A virus A/South Carolina/1/18 (H1N1)); experiment: trimeric HA microarray, transfection set 3
[17] = biological target: recombinant homotrimeric HA, A/Vietnam/1203/04 H5N1 (Influenza A virus A/Vietnam/1203/04 (H5N1)); experiment: trimeric HA microarray, transfection set 3
[18] = biological target: recombinant homotrimeric HA, A/Wisconsin/67/05 H3N2 (Influenza A virus A/Wisconsin/67/05 (H3N2)); experiment: trimeric HA microarray, transfection set 3
[19] = biological target: recombinant homotrimeric HA, A/chicken/Vietnam/NCVD-016/08 H5N1 (Influenza A virus A/chicken/Vietnam/NCVD-016/08 (H5N1)); experiment: trimeric HA microarray, transfection set 3
[20] = biological target: recombinant homotrimeric HA, A/common magpie/Hong Kong/5052/07 H5N1 (Influenza A virus A/common magpie/Hong Kong/5052/07 (H5N1)); experiment: trimeric HA microarray, transfection set 3
[21] = biological target: recombinant homotrimeric HA, A/duck/Yangzhou/02/05 H8N4 (Influenza A virus A/duck/Yangzhou/02/2005 (H8N4)); experiment: trimeric HA microarray, transfection set 3
[22] = biological target: recombinant homotrimeric HA, A/northern shoveler/California/HKWF115/07 (Influenza A virus A/northern shoveler/California/HKWF115/2007 (H6N1)); experiment: trimeric HA microarray, transfection set 3
[23] = biological target: recombinant homotrimeric HA, A/swine/Ontario/01911-2/99 H4N6 (Influenza A virus A/swine/Ontario/01911-2/99 (H4N6)); experiment: trimeric HA microarray, transfection set 3
[24] = biological target: hemagglutinin (HA) of influenza A/Solomon Islands/3/06 H1N1 (Influenza A virus A/Solomon Islands/3/2006 (H1N1)); experiment: ELISA, inactivated whole virions coated; transfection supernatant set 2
[25] = biological target: hemagglutinin (HA) of influenza A/Wisconsin/67/05 H3N2 (Influenza A virus A/Wisconsin/67/2005 (H3N2)); experiment: as above

Substance: TCN-202 (2N9) (antibody)
- % Neutralization [1]: 0%
- % Neutralization [2]: 0% and 7%
- % Neutralization [3]: 17.8% and 0%
- Trimeric HA Binding RLU [4]: 20 RLU
- Trimeric HA Binding RLU [5]: 27 RLU
- Trimeric HA Binding RLU [6]: 37 RLU
- Trimeric HA Binding RLU [7]: 33 RLU
- Trimeric HA Binding RLU [8]: 205 RLU
- Trimeric HA Binding RLU [9]: 63 RLU
- Trimeric HA Binding RLU [10]: 57 RLU
- Trimeric HA Binding RLU [11]: 30 RLU
- Trimeric HA Binding RLU [12]: 43 RLU
- Trimeric HA Binding RLU [13]: 42 RLU
- Trimeric HA Binding RLU [14]: 247 RLU
- Trimeric HA Binding RLU [15]: 57 RLU
- Trimeric HA Binding RLU [16]: 731 RLU
- Trimeric HA Binding RLU [17]: 967 RLU
- Trimeric HA Binding RLU [18]: 51 RLU
- Trimeric HA Binding RLU [19]: 14 RLU
- Trimeric HA Binding RLU [20]: 16 RLU
- Trimeric HA Binding RLU [21]: 66 RLU
- Trimeric HA Binding RLU [22]: 73 RLU
- Trimeric HA Binding RLU [23]: 54 RLU
- OD450 [24]: 0.08 OD450
- OD450 [25]: 0.07 OD450
